{"source": "patent US6835378B2", "about": "“Method and compositions for inhibiting thrombin-induced coagulation” (The Texas A&M University System University, priority 2001, dated 2004)", "molecules": {"B1": {"name": "rSdrG(50-597): recombinant His-tagged A region (residues 50-597) of SdrG, a fibrinogen-binding MSCRAMM from S. epidermidis (protein)", "chain": "HHHHHHAEENTVQDVKDSNMDDELSDSNDQSSNEEKNDVINNSQSINTDDDNQIKKEETNSNDAIENRSKDITQSTTNVDENEATFLQKTPQDNTQLKEEVVKEPSSVESSNSSMDTAQQPSHTTINSEASIQTSDNEENSRVSDFANSKIIESNTESNKEENTIEQPNKVREDSITSQPSSYKNIDEKISNQDELLNLPINEYENKVRPLSTTSAQPSSKRVTVNQLAAEQGSNVNHLIKVTDQSITEGYDDSDGIIKAHDAENLIYDVTFEVDDKVKSGDTMTVNIDKNTVPSDLTDSFAIPKIKDNSGEIIATGTYDNTNKQITYTFTDYVDKYENIKAHLKLTSYIDKSKVPNNNTKLDVEYKTALSSVNKTITVEYQKPNENRTANLQSMFTNIDTKNHTVEQTIYINPLRYSAKETNVNISGNGDEGSTIIDDSTIIKVYKVGDNQNLPDSNRIYDYSEYEDVTNDDYAQLGNNNDVNINFGNIDSPYIIKVISKYDPNKDDYTTIQQTVTMQTTINEYTGEFRTASYDNTIAFSTSSGQGQGDLPPE"}}, "key": {"[1]": {"system": "thrombin catalyzed release of fibrinopeptides A and B", "assay": "Release of fibrinopeptides by thrombin, HPLC", "assay_type": "biochemical", "details": "for Percentage of FpB released: Fg 0.3 μM", "procedure": "Release of Fibrinopeptides by Thrombin—The thrombin catalyzed release of fibrinopeptides A and B was analyzed as follows. Fg solutions were diluted to 0.3 μM in 20 mM HEPES (pH 7.4), 150 mM NaCl, 5 mM ε-aminocapriotic acid, and 1.0 mM CaCl2. ε-aminocapriotic acid was included to inhibit any possible plasmin contaminant activity. […] The tubes were mixed by inversion and 500 μl aliquots were removed for the 15 and 60 min time points. The aliquots were incubated at room temperature and then immersed in boiling water for 15 min to halt the reaction. The aliquots were stored on ice for the remainder of the time course. At the end of the reaction the samples were centrifuged for 15 min at 4° C., and the supernatants were removed and stored at −20° C. overnight prior to analysis by high performance liquid chromatography.\nThe fibrinopeptides released were monitored by reverse phase HPLC essentially as described (19). The samples were loaded onto a Waters Delta-Pak C18 column equilibrated with buffer A (25 mM NaH2PO4/Na2HPO4, pH 6.0). Fibrinopeptides were eluted with a linear gradient from 100% buffer A to 40% buffer B (Buffer A with 50% acetonitrile) and monitored by absorbance at 205 nm. Fibrinopeptide peak area was determined using the software Waters Millennium^32."}, "[2]": {"target": "Fg Bβ chain peptide β1-25 (Homo sapiens, UniProt P02675)", "sequence (P02675 31-55 limits assumed)": "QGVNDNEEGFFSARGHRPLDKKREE", "details": "read-out: KD for interaction with peptide β1-25; 10 nM fluorescein-labeled β1-25, 3 h, room temperature", "procedure": "Fluorescence Polarization—Fluorescence polarization was used to determine the equilibrium dissociation constant (KD) for the interaction of rSdrG(50-597) with peptide β1-25. The peptide was labeled with fluorescein as previously described (18). Increasing concentrations of rSdrG(50-597) in PBS, pH 7.5, were incubated with 10 nM labeled peptide for 3 h in the dark at room temperature. Reactions were allowed to reach equilibrium. Polarization measurements were taken with a Luminescence Spectrometer LS50B (Perkin Elmer) using FL WinLab software (Perkin Elmer). Binding data was analyzed by nonlinear regression used to fit a binding function as defined by the following equation: [formula]"}, "thrombin digested Fg": {"target": "T1, thrombin digested Fg (Homo sapiens, UniProt P02675)", "T1 construct": "purchased Enzyme Research Labs", "T1 sequence (P02675 45-491 limits assumed)": "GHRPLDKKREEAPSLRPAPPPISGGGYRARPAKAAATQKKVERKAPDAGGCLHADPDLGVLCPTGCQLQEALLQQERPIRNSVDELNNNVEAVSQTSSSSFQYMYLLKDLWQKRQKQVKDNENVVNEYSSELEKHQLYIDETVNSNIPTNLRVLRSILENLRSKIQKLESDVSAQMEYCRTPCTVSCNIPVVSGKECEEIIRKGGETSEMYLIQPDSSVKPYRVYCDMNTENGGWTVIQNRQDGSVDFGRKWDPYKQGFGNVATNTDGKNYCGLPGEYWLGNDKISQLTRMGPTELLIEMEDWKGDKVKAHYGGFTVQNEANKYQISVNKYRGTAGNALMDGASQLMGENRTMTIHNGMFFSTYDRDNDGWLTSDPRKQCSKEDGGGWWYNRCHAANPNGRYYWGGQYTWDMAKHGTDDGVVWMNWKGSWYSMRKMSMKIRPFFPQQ", "T1 sequence (P02671 36-629 partner limits assumed)": "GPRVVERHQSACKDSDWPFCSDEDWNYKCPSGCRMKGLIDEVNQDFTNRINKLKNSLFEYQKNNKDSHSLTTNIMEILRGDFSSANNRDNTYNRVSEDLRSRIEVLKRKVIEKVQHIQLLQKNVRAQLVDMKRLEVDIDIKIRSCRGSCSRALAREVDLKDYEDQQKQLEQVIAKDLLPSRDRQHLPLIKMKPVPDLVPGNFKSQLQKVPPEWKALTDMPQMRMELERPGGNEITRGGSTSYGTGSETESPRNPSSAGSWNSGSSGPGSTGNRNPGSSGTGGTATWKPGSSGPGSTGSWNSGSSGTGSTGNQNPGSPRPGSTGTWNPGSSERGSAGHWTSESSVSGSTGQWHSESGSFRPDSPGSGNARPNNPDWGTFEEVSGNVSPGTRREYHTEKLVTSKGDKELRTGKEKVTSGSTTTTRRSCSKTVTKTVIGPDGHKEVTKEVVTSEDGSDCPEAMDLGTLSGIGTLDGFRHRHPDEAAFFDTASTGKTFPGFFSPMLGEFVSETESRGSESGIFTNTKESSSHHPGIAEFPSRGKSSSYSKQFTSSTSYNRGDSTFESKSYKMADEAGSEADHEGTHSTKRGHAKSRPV", "T1 sequence (P02679 27-437 isoform P02679-2 partner limits assumed)": "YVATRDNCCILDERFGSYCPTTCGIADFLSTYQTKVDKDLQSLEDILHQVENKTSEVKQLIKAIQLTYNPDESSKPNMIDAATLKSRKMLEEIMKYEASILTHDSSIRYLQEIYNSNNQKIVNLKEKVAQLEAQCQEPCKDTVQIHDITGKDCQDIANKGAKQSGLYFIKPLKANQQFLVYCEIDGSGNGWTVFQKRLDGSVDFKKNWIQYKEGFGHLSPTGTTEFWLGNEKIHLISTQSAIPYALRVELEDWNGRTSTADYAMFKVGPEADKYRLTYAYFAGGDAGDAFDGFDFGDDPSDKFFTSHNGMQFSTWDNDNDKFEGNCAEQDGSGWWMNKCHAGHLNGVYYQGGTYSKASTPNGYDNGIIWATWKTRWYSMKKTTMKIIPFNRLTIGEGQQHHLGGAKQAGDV", "assay": "ELISA with thrombin-digested Fg", "assay_type": "binding", "details": "Fg wells pretreated with thrombin 30 min 37° C.", "procedure": "For the ELISA with thrombin-digested Fg, the plate was coated with Fg and blocked as described above. The plate was washed three times with PBST and 50 μl of 1.0 NIH unit/ml of thrombin was added to the Fg coated wells. The plate was incubated at 37° C. for 30 min. The plate was washed three times with PBST and 50 μl of 1.0 NIH unit/ml of hirudin (Sigma) was added to the wells and incubated at 37° C. for 30 min. The plate was washed three times with PBST and blocked with 1% BSA for 1 h at room temperature. After washing three times with PBST, 100 μl of biotin labeled rSdrG(50-597) (25-1000 nM) or a rSdrG(50-597)/hirudin (1.0 NIH unit/ml) mixture was added to the wells and incubated for 1 h at room temperature. The plate was washed three times with PBST and a 1:5000 dilution of streptavidin-AP conjugated (Boehringer Mannheim) in PBST/0.1% BSA was added to the wells for 1 h at room temperature. The plate was washed three times with PBST and developed as described above."}}, "note": "“Also recorded” adds a separate entry of the source.", "data": [{"molecule": "B1", "values": [{"measurement": "FpA release by thrombin", "setting": "[1]", "result": "no apparent interference"}, {"measurement": "FpB release by thrombin", "setting": "[1]; 1:1 ratio of rSdrG(50-597) to Fg", "result": "significant decrease"}, {"measurement": "FpB release by thrombin", "setting": "[1]; 5:1 ratio (1.5 μM rSdrG(50-597))", "result": "decrease in the amount of FpB released; also recorded: effectively able to inhibit the release of FpB"}, {"measurement": "Percentage of FpB released", "setting": "[1]; SdrG:Fg 1:1, 15 min", "result": 65.4, "unit": "%"}, {"measurement": "Percentage of FpB released", "setting": "[1]; SdrG:Fg 1:1, 60 min", "result": 45.2, "unit": "%"}, {"measurement": "Percentage of FpB released", "setting": "[1]; SdrG:Fg 2:1, 15 min", "result": 13.9, "unit": "%"}, {"measurement": "Percentage of FpB released", "setting": "[1]; SdrG:Fg 2:1, 60 min", "result": 17.4, "unit": "%"}, {"measurement": "Percentage of FpB released", "setting": "[1]; SdrG:Fg 5:1, 15 min", "result": "<0.001", "unit": "%"}, {"measurement": "Percentage of FpB released", "setting": "[1]; SdrG:Fg 5:1, 60 min", "result": "<0.001", "unit": "%"}, {"measurement": "Kd", "setting": "[2]", "result": 140, "unit": "nM"}, {"measurement": "binding to thrombin digested Fg", "setting": "thrombin digested Fg", "result": "significantly impaired; also recorded: unable to bind"}, {"measurement": "binding to thrombin digested Fg", "setting": "thrombin digested Fg; listed as SdrG", "result": "could not bind; also recorded: does not bind"}]}]}
